Experimental data published in the DeepSol protein solubility set.

Test: soluble on expression in E. coli; label from the status in PepcDB or PDB records

Row | Sequence | soluble on expression in E. coli
1 | MSLKQNQNSDESIDENMSVDNTETCMVDTVKATAIFWIDKAEAKHCKDSGLRTIKAKVFIHENGKVDFLSFTKKQSSGVEKYILHHLDKFQISKRMLEGGYIQTGEQFVQLRCMREKLQAMQEGHHHHHH | soluble
2 | ASGSDENDVVIIGGGPGGYVAAIKAAQLGFKTTCIEKRGALGGTCLNVGCIPSKALLHSSHMYHEAKHSFANHGVKVSNVEIDLAAMMGQKDKAVSNLTRGIEGLFKKNKVTYVKGYGKFVSPSEISVDTIEGENTVVKGKHIIIATGSDVKSLPGVTIDEKKIVSSTGALALSEIPKKLVVIGAGYIGLEMGSVWGRIGSEVTVVEFASEIVPTMDAEIRKQFQRSLEKQGMKFKLKTKVVGVDTSGDGVKLTVEPSAGGEQTIIEADVVLVSAGRTPFTSGLNLDKIGVETDKLGRILVNERFSTNVSGVYAIGDVIPGPMLAHKAEEDGVACVEYLAGKVGHVDYDKVPGVVYTNPEVASVGKTEEQVKETGVEYRVGKFPFMANSRAKAIDNAEGLVKIIAEKETDKILGVHIMAPNAGELIHEAAIALQYDASSEDIARVCHAHPTMSEAIKEAAMATYDKPIHI | soluble
3 | GMNLQTDQTTTTADESAIRAFHRQMIDAWNRGSGEGFAAPFSETADFITFEGTHLKGRKEIAAFHQQAFDTVVKGTRLEGEVDFVRFVNSQLALMLVVIRVILPGQTETSASRDSLPLYVVTKGDEGWQIEGLLNTRKLTLERQFFLDDFDSLSAEAQRQVTDLVASLKQSH | soluble
4 | MSLRRTRIRFEAWTAENAHRYHSLAHALPQLGARRPTGLLLDEAGRAAIPFLRTGQFIIGLGDPAGSERNCVAAIWRLRDLALQEGCKLAFIQVGQSLMAVYNDLGLTVCPDRTAGTVCCFSEDYRMLRAFLKGEERLARKREGHHHHHH | not soluble
5 | MQTDSLSPSPNPVSPVPLNNPTSAPRYGTVIPNRIFVGGIDFKTNESDLRKFFSQYGSVKEVKIVNDRAGVSKGYGFVTFETQEDAQKILQEAEKLNYKDKKLNIGPAIRKQQVGIPRSSIMPAAGTMYLTTSTGYPYTYHNGVAYFHTPEVTSVPPPWPSRSVCSSPVMVAQPIYQQPAYHYQATTQYLPGQWQWSVPQPSASSAPFLYLQPSEVIYQPVEIAQDGGCVPPPLSLMETSVPEPYSDHGVQATYHQVYAPSAITMPAPVMQPEPIKTVWSIHY | soluble
6 | KASDQFIVYRASIAGPTMIAGYHWFNERGRDILIALPGLALVPQRFDLAKGVLRTFRHYYRHGLMPNVFPDADGEPLYNSIDAALWWVETLGLYLEATQDWEFLAEQFSVVQQIHKAFVGGTHYNIQVDAIDGLISWDARGVALTWMDVVIGANPVTPRHGKPVEINALWYSALCWLSRWAERLSSLELGDPVRLTKQAQRYALQAEKVKTSLQKFWNPQLGYLYDTIEPDDRRNFQIRPNAVLALSLHHCGFSAQQGSQILDLATISLLTPYGLRSLDPGDPEYKGRYEGNQEQRDRAYHQGTVWGWLIGPYIRAWQRFYPEQSLPFDWQPLLDHFLSGACLGSISEIFDGDAPHTPRGAIAQAWSVAEIIRHIQK | not soluble
7 | MGSDKIHHHHHHLGDHTLNQVTDTPLSQQHITQHTQVAPSRLAAAGLSASIMLLKRILKPFEHVQRHRHSWGQVIYASQGVLSVITPAGRYIVPPEQAVWVPPFVDHEVIALSQVQLSSLYLDDTQIGGFPPCCTCLNVKPVLQLLLQEVNAFMKSEAGLIDPDFKDSVMRLLMVIRDFMVLAPKVALDLPYPKDKKLLRITEALLADPSEQRTLVDWQREVGASARTLARLFKQQTGLSYSQWLQRLRLQVAIQMLSRGESVLTTALSLGYASGSAFGYMFRQLMGVAPSQYLLAQSTLPKVQCQK | not soluble
8 | MGSDKIHHHHHHMNDPTFYRDGQGQPIQPDSAREAVAWLTQLMSDSVTEQDRREWQRWREASPDNEQAWQHIESVCANLGQLNARAAHQSLSTLNGMQRRSVLKALAILCLTGGAGMAGSRTDVWQSFTADYQTQVGEQRHAVLEDGTTLLLNTQTALNVAYGDDLRQLTLIRGEVMIETSQVEKAALYPRPFIVTTAQGKVQALGTRFSLRVQDEHTQVAVYDGAVRLHPQRNGQDVQVVKSGQTATFTTQRCGQIETEKAEPAWVKGQLLADNQRLVDFVDELSRYRSGVIRCQPEVESLRFSGVFPLSDTDNILAALAEALPVQVRYFSRYWVQIAAR | not soluble
9 | SLRITAIREIAVPLQGNISNSLVSFAEHTVSLVALVSDVVRDGRPLIGYAFDSIGRYAQPGLMRERFIPRLLQAAPHELLDDGGQAFDPARASAIMLRNEKPGGHGDRAAAVGALELAFWDLNAKLRDEPAYCTIARHVGRPAQAGATQVYAAGGYYYDSGDPLQRLRDEFRGYLDQGFVKFKMKIGGASLADDLARIEAALGVAGEGANLAVDANGRFDLDTALAYARALEPYGLRWYEEIGDPLDYHLNSLVAQAYAGTIATGENLFSLPDVRNLLHFAGVRPGRDILQMDPGLSYGLTEYLRMMAAVEAAGFGRSCLHPHGGHLINLHIAAGLGLGGCEAYPGVFQPFGGYPAACALGAGQVRPTDAPGFGLEQKQELAPYISVLAHG | soluble
10 | MSLHSVAEREKRNAVHDSLTGLPNRKYCFELIDDRIQSGDPFSVILFDVVNFKQVNDAMGHFCGDQLLIQIGQRLQDKLKGSDKIFRVGGDEFVILTSSACEKTGTELIESLDCALSARFHLDEFQVSSRVVFGISTYPYDAISNDLLIKHADIAMYHAKRNGNLFAFYHDDMNVGAKYQLEISSRIQCALEKEEFQLYYQPLIDANTNLAVGFEAVIRWHDENGKTISPNDFIPIAERSNQVHNITMWVLGQVEKDLKTFIEKGIKLPVHVNLSAKDLSSNLLFHRLEKLLENNPQFADLISLEITETMAIDRVVELNPLIHQIKGLGIKISLDDFGTGYSSLSLLRDLPVDQIKIDRSFLCTANRTEGSRSIVENTIALAHGLGYSVVAEGVQDMDTLYFLRSRGCDIIQGYLFCPALPLNEVINWVNEHDDKQSHTRRAEGHHHHHH | soluble
11 | MGSDKIHHHHHHMTSFISVYLKIKYYICIYKGNLLVKSILLESSCVILIKYSAQYPNLSNSMIKMNKTISDVDFDDEQEIKLPLSNRQSIAILLGAGFSAPKGYPIGNDINKKIQNFDDSNIDFSPSGMLAISKDGHKPLFQIEGVRNIHQKYFIFCKRLINEYTKAHSNQFDYEQFYDFIKSDEAKDNRYRLLCQDLINKSDDYDNYLFNVVHIYNQMVLYLLKDKEGKSYYDGEPFKVNCADAYNEFLLYLSQQSKECIINIHTLNHDLLIESFNQTSNINGNISDGFDEYGSEYYGILEHDHRNYNCRLERYTGRYNTPIRLYKLHGSIDYVPFYRRDKNGFMKPEKYVKIKWGIGASNIIKGRKSKYGYDASPFEYHADFLTGTTSKIKRYDETLLFKKLFKKFRNNLSKANSLIIIGYGCKDKGINEMIKDNFDYKNKPSFIIDKYAGASVETFAQKINAKIIKESIERLDKTWFV | not soluble
12 | MIKVGICDTTFARYDMGGAAIDELKKHTAGIKIIRRTVPGIKDLPVACKKLIEEEGCEMVMALGMPGPEEKDKVCAHEASTGLIQAQLMTNTHILEVFVHEDEEDDPEELKVLADNRAREHAQNLIMMLFKPDRLTREAGMGLREGKPDAGPL | not soluble
13 | VVKLAFPRELRLLTPSQFTFVFQQPQRAGTPQITILGRLNSLGHPRIGLTVAKKNVRRAHERNRIKRLTRESFRLRQHELPAMDFVVVAKKGVADLDNRALSEALEKLWRRHCRLARGS | soluble
14 | GSHMFYAVRRGRKTGVFLTWNECRAQVDRFPAARFKKFATEDEAWAFVRKSAS | soluble
15 | VYGDIWGFETDRYFTKDDFNADGSYKEGIASQKKLEQDGFVYGPGDIKFKDLNNDKEINGGEGTVKDHGDLKVIGNTTPRYQYGFRLGGEWKGIDIDMFFQGVGKCDAWTQSAFVMPMMRGADAIYANQANYWTDENPDPNADFPRMWPGNAGKGTVSVLDLGNHNFYPQSKYLVNMAYLRFKNLTIGYTLPKDWTRKVYMDKVRVYFSANNICELINKSNAPVDPEVNTSEAIANGGSSDYGNGTWGRVDPMYRTVSFGLQVTF | not soluble
16 | MSLRYLRFLTAGESHGKGLTAILEGIPANLPLSEEEINHELRRRQRGYGRGGRMKIEKDTAEILSGVRFGKTLGSPIALFIRNRDWENWKEKMAIEGEPSPSVVPFTRPRPGHADLSGGIKYNQRDLRNILERASARETAARVAVGAVCKKFLSEFGIKIGSFVVSIGQKEVEELKDKSYFANPEKLLSYHEKAEDSELRIPFPEKDEEFKTYIDEVKEKGESLGGVFEVFALNVPPGLGSHIQWDRRIDGRIAQAMMSIQAIKGVEIGLGFEAARRFGSQVHDEIGWSEGKGYFRHSNNLGGTEGGITNGMPIVVRVAMKPIPTLKNPLRSVDIETKEEMKAGKERTDIVAVPAASVVGEAMLAIVLADALLEKLGGDFMEEVKKRFEDYVNHVKSF | soluble
17 | NIPEIENANLKPALKDSVLPDGFYSTTNHPTHVKVNDEWIEVANPKMDAVIVVYPEEKRAETKVIRKVKKGDFVLIGHNGIRVMPPEKSREAGQLFEFMNSEVSSEKPKEAIIKRIAKEMHEIREEYKKTGTGGIAIVGGPAIIHTGGGPALAKMVELGYIQAILAGNALATHDIESALYGTSLGVNIKTAKPVTGGHKHHIYAINAINDAGNIKNAVESGVLKEGIMYQCIKNNIPYVLAGSIRDDGPIPDVITDSMVAQDKMRTTVMDKKMVIMLSTLLHSVATGNLMPSYIKTVCVDIQPSTVTKLMDRGTSQAIGVVTDVGVFLVLLLKELER | not soluble
18 | MSTTHNSLPASSDKHHDGHGEASLYHDSHGHAWSGNPNYTLTQLIPELRINLGSSLDIGSGEGADAAWLASLGWKAVGLEPSGVAVERSRELSSNATFIQGKVPQDLDRCGGPFDLVTGFYIPIAGEDAWRAIARQVADGGYLIYVHHNLDELRAKGHPLLGRDDLLMPFDAADLAPSGAWEIVVHETRHREIVGGHGHHHHLDDVLVLKRRKK | not soluble
19 | QVTLKESGPTLVKPTQTLTLTCTFSGFSLRTSRVGVSWIRQPPGKALEWLAHIYWDDDKRYNPSLKSRLTISKDTSKNQVVLTMTNMDPVDTATYYCARRGFYGRKYEVNHFDYWGQGTTVTVSSASTKGPSVFPLAPSSKSTSGGTAALGCLVKDYFPEPVTVSWNSGALTSGVHTFPAVLQSSGLYSLSSVVTVPSSSLGTQTYICNVNHKPSNTKVDKKVEPKSCG | soluble
20 | SWQTYVDTNLVGTGAVTQAAILGLDGNTWATSAGFAVTPAQGQTLASAFNNADPIRASGFDLAGVHYVTLRADDRSIYGKKGSAGVITVKTSKSILVGVYNEKIQPGTAANVVEKLADYLIGQGF | soluble
21 | AIAAELGLNEHHQNEVINYMRFARSKRGLRLKTVDSCFQDLKESRLVEDTFTIDEVSEVLNGLQAVVHSEVESELINTAYTNVLLLRQLFAQAEKWYLKLQTDISELENQELLEQVAEFEKAEITSSNKKPILDVTKPKLAPLNEGGTAELLNEEILRLQEENEKLKSRLKTIEIQATNALDEKSKLEKALQDLQLDQGNQKDFIKAQDLSNLENTVAALKSEFQKTLNDKTENQKSLEENLATAKHDLLRVREQLHMAEKELEKKFQQTAAYRNMKEILTKKNDQIKDLRKRLAQYEPED | soluble
22 | MTDQMRDMIAQLMGSQHVDNKEKPSMPFDHHSVCRAFLLGVCPHDMVPDSRLQNVVSCRKVHEPAHKADYERAQKEKDHFYDVDAFEIIEHAVHLVDIEIAKVREKLEDDVKTQTSQAADSKAKQVAEIEEKIAKNVDDIEKLGNEGKIEESMKLHKYVEELREKIQEIEDSQTEVKTAGPGSNSAKLRVCEDCGAQLNITDHESRIADHYNGKMHIGMVETRETYLKMKETIDERRKEREEKLGSQRGYQRRESYGRRDRGGDRGEYRGDRDRDRRNRDRSRSRDRSYRRDDRGDRRYDRDNRDRRDRDRRY | not soluble
23 | LCPDAVAGIAVAAPHIYVEDITVANIAVALRAYRETTLRDRLARYHDDVDSTFASWTDTWLDPAFRQWNIEAYLPAITCPMLAMQGVDDEYGTLEQIRGIRRLAPQTRLLEIQDCGHSPHKDQPELVTRALAGFV | not soluble
